Test [1] has as its target T1, human glucose-dependent insulinotropic polypeptide (GIP) receptor (human, UniProt P48546 22-466).
T1 construct: whole, on cells; Assayed as crude membranes of stably transfected CHO cells; also called hGIPR; human GIP receptor
T1 sequence (looked up): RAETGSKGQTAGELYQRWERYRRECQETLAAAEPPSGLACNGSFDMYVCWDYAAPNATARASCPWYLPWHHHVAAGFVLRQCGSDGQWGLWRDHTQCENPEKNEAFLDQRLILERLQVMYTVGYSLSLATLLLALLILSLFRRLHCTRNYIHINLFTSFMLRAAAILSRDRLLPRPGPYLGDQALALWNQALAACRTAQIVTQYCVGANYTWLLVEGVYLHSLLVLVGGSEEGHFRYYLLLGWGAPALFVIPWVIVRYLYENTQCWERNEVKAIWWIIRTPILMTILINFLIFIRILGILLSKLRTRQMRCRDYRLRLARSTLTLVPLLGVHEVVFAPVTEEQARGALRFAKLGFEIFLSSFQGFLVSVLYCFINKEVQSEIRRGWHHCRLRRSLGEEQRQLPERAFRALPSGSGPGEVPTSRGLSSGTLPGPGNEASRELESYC
Description: SPA, displacement of [125I]-GIP from hGIPR membranes, 0.1% bacitracin. The protocol:
The binding buffer contains 25 mM HEPES, pH 7.4, 2.5 mM CaCl₂, 1 mM MgCl₂, 0.1% (w/v) bacitracin, 0.003% (w/v) TWEEN®-20, and Roche Complete™ Protease Inhibitors without EDTA. […] Plates are sealed and mixed on a plate shaker (setting 6) for 1 minute and read with a PerkinElmer Trilux MicroBeta® scintillation counter after 2.5 to 12 hours of incubation/settling time at room temperature.
(§1) Data are analyzed using four-parameter (curve maximum, curve minimum, […], Hill slope) nonlinear regression routines (Genedata Screener, version 12.0.4, Genedata AG, Basal, Switzerland). […] Values for Kᵢ are reported as the geometric mean, with error expressed as the standard error of the mean (SEM) and n is equal to the number of independent replicates (determined in assays performed on different days). Geometric Means are calculated as follows: […]
A general note: In a radioligand displacement assay an active substance lowers the binding of a labelled ligand.

The target of another test is T2, human GLP-1 receptor (human, UniProt P43220 24-463).
T2 construct: whole, on cells; Assayed as crude membranes of stably transfected HEK293 cells; also called hGLP1R; hGLP-1R
Description: SPA, displacement of [125I]-GLP-1 from hGLP-1R membranes, 0.1% bacitracin. As for the experimental part:
The binding buffer contains 25 mM HEPES, pH 7.4, 2.5 mM CaCl₂, 1 mM MgCl₂, 0.1% (w/v) bacitracin, 0.003% (w/v) TWEEN®-20, and Roche Complete™ Protease Inhibitors without EDTA.
as §1

Starred links: 1 amine or outer side, 2 acyl side, 3 side chain; linkers in the order of their positions; H or OH if unused. Non-standard residues stand in square brackets, D forms with d. Groups on a side chain read outwards from the residue. No end group written: not given here. *: point of attachment. C20 diacid = O=C(O)CCCCCCCCCCCCCCCCCCC(=O)*; C18 diacid = O=C(O)CCCCCCCCCCCCCCCCC(=O)*; γGlu = O=C(O)[C@H](CCC(=O)[*:2])N[*:1]; 4Pal = N[C@@H](Cc1ccncc1)C(=O)O; αMeL = CC(C)C[C@](C)(N)C(=O)O; AEEA = NCCOCCOCC(=O)O; Aib = CC(C)(N)C(=O)O

One may read the Ki as the dissociation constant of the complex between target and ligand, obtained from inhibition or displacement.

B1: Example 10 (peptide)
peptide: Y[dA]EGTFISDYSILLDKK([AEEA-AEEA-γGlu-C20 diacid])HQQDFVNWLLAGGPSSGAPPPS-NH2
modifications: N-terminus assumed
SMILES: CC[C@H](C)[C@H](NC(=O)[C@H](CO)NC(=O)[C@H](Cc1ccc(O)cc1)NC(=O)[C@H](CC(=O)O)NC(=O)[C@H](CO)NC(=O)[C@@H](NC(=O)[C@H](Cc1ccccc1)NC(=O)[C@@H](NC(=O)CNC(=O)[C@H](CCC(=O)O)NC(=O)[C@@H](C)NC(=O)[C@@H](N)Cc1ccc(O)cc1)[C@@H](C)O)[C@@H](C)CC)C(=O)N[C@@H](CC(C)C)C(=O)N[C@@H](CC(C)C)C(=O)N[C@@H](CC(=O)O)C(=O)N[C@@H](CCCCN)C(=O)N[C@@H](CCCCNC(=O)COCCOCCNC(=O)COCCOCCNC(=O)CC[C@H](NC(=O)CCCCCCCCCCCCCCCCCCC(=O)O)C(=O)O)C(=O)N[C@@H](Cc1c[nH]cn1)C(=O)N[C@@H](CCC(N)=O)C(=O)N[C@@H](CCC(N)=O)C(=O)N[C@@H](CC(=O)O)C(=O)N[C@@H](Cc1ccccc1)C(=O)N[C@H](C(=O)N[C@@H](CC(N)=O)C(=O)N[C@@H](Cc1c[nH]c2ccccc12)C(=O)N[C@@H](CC(C)C)C(=O)N[C@@H](CC(C)C)C(=O)N[C@@H](C)C(=O)NCC(=O)NCC(=O)N1CCC[C@H]1C(=O)N[C@@H](CO)C(=O)N[C@@H](CO)C(=O)NCC(=O)N[C@@H](C)C(=O)N1CCC[C@H]1C(=O)N1CCC[C@H]1C(=O)N1CCC[C@H]1C(=O)N[C@@H](CO)C(N)=O)C(C)C
Turning to B1, the Ki in test [1] was found to be 0.159 nM; with human GLP-1 receptor it was 60.7 nM.

B2: Example 22 (peptide)
peptide: Y[Aib]EGTFISDYSILLDKK([AEEA-AEEA-γGlu-C18 diacid])HQ[Aib]DFVE[4Pal]LLAGGPSSGAPPPS-NH2
modifications: N-terminus assumed
SMILES: CC[C@H](C)[C@H](NC(=O)[C@H](CO)NC(=O)[C@H](Cc1ccc(O)cc1)NC(=O)[C@H](CC(=O)O)NC(=O)[C@H](CO)NC(=O)[C@@H](NC(=O)[C@H](Cc1ccccc1)NC(=O)[C@@H](NC(=O)CNC(=O)[C@H](CCC(=O)O)NC(=O)C(C)(C)NC(=O)[C@@H](N)Cc1ccc(O)cc1)[C@@H](C)O)[C@@H](C)CC)C(=O)N[C@@H](CC(C)C)C(=O)N[C@@H](CC(C)C)C(=O)N[C@@H](CC(=O)O)C(=O)N[C@@H](CCCCN)C(=O)N[C@@H](CCCCNC(=O)COCCOCCNC(=O)COCCOCCNC(=O)CC[C@H](NC(=O)CCCCCCCCCCCCCCCCC(=O)O)C(=O)O)C(=O)N[C@@H](Cc1c[nH]cn1)C(=O)N[C@@H](CCC(N)=O)C(=O)NC(C)(C)C(=O)N[C@@H](CC(=O)O)C(=O)N[C@@H](Cc1ccccc1)C(=O)N[C@H](C(=O)N[C@@H](CCC(=O)O)C(=O)N[C@@H](Cc1ccncc1)C(=O)N[C@@H](CC(C)C)C(=O)N[C@@H](CC(C)C)C(=O)N[C@@H](C)C(=O)NCC(=O)NCC(=O)N1CCC[C@H]1C(=O)N[C@@H](CO)C(=O)N[C@@H](CO)C(=O)NCC(=O)N[C@@H](C)C(=O)N1CCC[C@H]1C(=O)N1CCC[C@H]1C(=O)N1CCC[C@H]1C(=O)N[C@@H](CO)C(N)=O)C(C)C
For B2, the Ki in test [1] turned out to be 0.219 nM; in the test with human GLP-1 receptor it was 388 nM.

B3: Example 24 (peptide)
peptide: Y[Aib]EGTFISDYSI[Aib]LDKK([AEEA-AEEA-γGlu-C18 diacid])HQ[Aib]DFVE[4Pal]LLAGGPSSGAPPPS-NH2
modifications: N-terminus assumed
SMILES: CC[C@H](C)[C@H](NC(=O)[C@H](Cc1ccccc1)NC(=O)[C@@H](NC(=O)CNC(=O)[C@H](CCC(=O)O)NC(=O)C(C)(C)NC(=O)[C@@H](N)Cc1ccc(O)cc1)[C@@H](C)O)C(=O)N[C@@H](CO)C(=O)N[C@@H](CC(=O)O)C(=O)N[C@@H](Cc1ccc(O)cc1)C(=O)N[C@@H](CO)C(=O)N[C@H](C(=O)NC(C)(C)C(=O)N[C@@H](CC(C)C)C(=O)N[C@@H](CC(=O)O)C(=O)N[C@@H](CCCCN)C(=O)N[C@@H](CCCCNC(=O)COCCOCCNC(=O)COCCOCCNC(=O)CC[C@H](NC(=O)CCCCCCCCCCCCCCCCC(=O)O)C(=O)O)C(=O)N[C@@H](Cc1c[nH]cn1)C(=O)N[C@@H](CCC(N)=O)C(=O)NC(C)(C)C(=O)N[C@@H](CC(=O)O)C(=O)N[C@@H](Cc1ccccc1)C(=O)N[C@H](C(=O)N[C@@H](CCC(=O)O)C(=O)N[C@@H](Cc1ccncc1)C(=O)N[C@@H](CC(C)C)C(=O)N[C@@H](CC(C)C)C(=O)N[C@@H](C)C(=O)NCC(=O)NCC(=O)N1CCC[C@H]1C(=O)N[C@@H](CO)C(=O)N[C@@H](CO)C(=O)NCC(=O)N[C@@H](C)C(=O)N1CCC[C@H]1C(=O)N1CCC[C@H]1C(=O)N1CCC[C@H]1C(=O)N[C@@H](CO)C(N)=O)C(C)C)[C@@H](C)CC
B3: the Ki in test [1] is 0.254 nM; in the test with human GLP-1 receptor it was 729 nM.

B4: Example 83 (peptide)
peptide: Y[Aib]EGTFISDYSI[αMeL]LDEK([AEEA-AEEA-γGlu-C20 diacid])HQ[Aib]DFVE[4Pal]LLATGPSSGAPPPS-NH2
modifications: N-terminus assumed
SMILES: CC[C@H](C)[C@H](NC(=O)[C@H](Cc1ccccc1)NC(=O)[C@@H](NC(=O)CNC(=O)[C@H](CCC(=O)O)NC(=O)C(C)(C)NC(=O)[C@@H](N)Cc1ccc(O)cc1)[C@@H](C)O)C(=O)N[C@@H](CO)C(=O)N[C@@H](CC(=O)O)C(=O)N[C@@H](Cc1ccc(O)cc1)C(=O)N[C@@H](CO)C(=O)N[C@H](C(=O)N[C@@](C)(CC(C)C)C(=O)N[C@@H](CC(C)C)C(=O)N[C@@H](CC(=O)O)C(=O)N[C@@H](CCC(=O)O)C(=O)N[C@@H](CCCCNC(=O)COCCOCCNC(=O)COCCOCCNC(=O)CC[C@H](NC(=O)CCCCCCCCCCCCCCCCCCC(=O)O)C(=O)O)C(=O)N[C@@H](Cc1c[nH]cn1)C(=O)N[C@@H](CCC(N)=O)C(=O)NC(C)(C)C(=O)N[C@@H](CC(=O)O)C(=O)N[C@@H](Cc1ccccc1)C(=O)N[C@H](C(=O)N[C@@H](CCC(=O)O)C(=O)N[C@@H](Cc1ccncc1)C(=O)N[C@@H](CC(C)C)C(=O)N[C@@H](CC(C)C)C(=O)N[C@@H](C)C(=O)N[C@H](C(=O)NCC(=O)N1CCC[C@H]1C(=O)N[C@@H](CO)C(=O)N[C@@H](CO)C(=O)NCC(=O)N[C@@H](C)C(=O)N1CCC[C@H]1C(=O)N1CCC[C@H]1C(=O)N1CCC[C@H]1C(=O)N[C@@H](CO)C(N)=O)[C@@H](C)O)C(C)C)[C@@H](C)CC
As for B4, the Ki in test [1] is 0.116 nM; with human GLP-1 receptor, 452 nM.

B5: Example 84 (peptide)
peptide: Y[Aib]EGTFISDYSI[αMeL]LDEK([AEEA-AEEA-γGlu-C20 diacid])HQ[Aib]DFVE[4Pal]LLAQGPSSGAPPPS-NH2
modifications: N-terminus assumed
SMILES: CC[C@H](C)[C@H](NC(=O)[C@H](Cc1ccccc1)NC(=O)[C@@H](NC(=O)CNC(=O)[C@H](CCC(=O)O)NC(=O)C(C)(C)NC(=O)[C@@H](N)Cc1ccc(O)cc1)[C@@H](C)O)C(=O)N[C@@H](CO)C(=O)N[C@@H](CC(=O)O)C(=O)N[C@@H](Cc1ccc(O)cc1)C(=O)N[C@@H](CO)C(=O)N[C@H](C(=O)N[C@@](C)(CC(C)C)C(=O)N[C@@H](CC(C)C)C(=O)N[C@@H](CC(=O)O)C(=O)N[C@@H](CCC(=O)O)C(=O)N[C@@H](CCCCNC(=O)COCCOCCNC(=O)COCCOCCNC(=O)CC[C@H](NC(=O)CCCCCCCCCCCCCCCCCCC(=O)O)C(=O)O)C(=O)N[C@@H](Cc1c[nH]cn1)C(=O)N[C@@H](CCC(N)=O)C(=O)NC(C)(C)C(=O)N[C@@H](CC(=O)O)C(=O)N[C@@H](Cc1ccccc1)C(=O)N[C@H](C(=O)N[C@@H](CCC(=O)O)C(=O)N[C@@H](Cc1ccncc1)C(=O)N[C@@H](CC(C)C)C(=O)N[C@@H](CC(C)C)C(=O)N[C@@H](C)C(=O)N[C@@H](CCC(N)=O)C(=O)NCC(=O)N1CCC[C@H]1C(=O)N[C@@H](CO)C(=O)N[C@@H](CO)C(=O)NCC(=O)N[C@@H](C)C(=O)N1CCC[C@H]1C(=O)N1CCC[C@H]1C(=O)N1CCC[C@H]1C(=O)N[C@@H](CO)C(N)=O)C(C)C)[C@@H](C)CC
In the case of B5, the Ki in test [1] was determined as 0.0584 nM; with human GLP-1 receptor it was 325 nM.

Source of the values: patent US20210032299A1 (Eli Lilly, published 2021).
